Sequences and labels used below:
B1: Fab fragment of a high-affinity variant of clone 2.1 (2.1^hi) (Fab, V domains shown)
VH: EVQLQESGPSLVKPSQTLSLTCSVTGASITSGYWNWIRKFPGNRLEYMGYISYSGGTYYNPSLKSRISITRDTSKNQYYLQLNSVTTEDTATYYCARDFDVWGAGTTVTVSS
VL: DIVMTQSQKFMSTSVGDRVSVTCKASQNVGTNVGWFQQKPGQSPKSLIYSASYRYSGVPDRFTGSGSGTDFTLTISNVQSEDLAEYFCHQYYSYPLTFGSGTKLEIK
B2: clone 2.1 Fab TA_2 (Fab, V domains shown)
VH: B1 VH with A27D, R44K, G56S
VL: B1 VL with F36Y, S46A, H89Q, Y92N
B3: clone 2.1 Fab TA_25 (Fab, V domains shown)
VH: B1 VH with A27D, R44K, G56S
VL: B1 VL with G34A, F36Y, S46A
B4: clone 2.1 Fab TA_11 (Fab, V domains shown)
VH: B1 VH with A27D, G56S
VL: B1 VL with G34A, F36Y, S46A, H89Q, Y92N
B5: clone 2.1 Fab TA_26 (Fab, V domains shown)
VH: B1 VH with A27D, R44K, G56S
VL: B1 VL with G34A, F36Y, S46A, H89Q, Y92D
B6: clone 2.1 Fab TA_13 (Fab, V domains shown)
VH: B1 VH with A27D, R44K, G56S
VL: B1 VL with S46A
B7: clone 2.1 Fab L_11 (affinity ladder) (Fab, V domains shown)
VH: B1 VH with A27D, R44K, G56S, K75T, Y94F
VL: B1 VL with F36Y, S46A, H89Q, Y92N
B8: clone 2.1 Fab TA_27 (Fab, V domains shown)
VH: B1 VH with A27D, G56S
VL: B1 VL with H89Q, Y92S
B9: clone 2.1 Fab TA_16 (Fab, V domains shown)
VH: B1 VH with A27D, R44K, G56S
VL: B1 VL with F36Y, Y49F, H89Q, Y92N
B10: clone 2.1 Fab TA_1 (Fab, V domains shown)
VH: B1 VH with A27D, Y53F, G56S
VL: B1 VL with F36Y, S46A, H89Q, Y92N
B11: clone 2.1 Fab L_10 (affinity ladder) (Fab, V domains shown)
VH: B1 VH with S10G, A27D, R44K, G56S, I67V, Y78H, A96G
VL: B1 VL with G34A, F36Y, S46A, H89Q, Y92K
B12: clone 2.1 Fab, unmutated (Fab, V domains shown)
VH: B1 VH with A27D, R44K, G56S
VL: B1 VL with G34A, F36Y, S46A, H89Q, Y92N
B13: clone 2.1 Fab TA_5 (Fab, V domains shown)
VH: B1 VH with R44K, G56S
VL: B1 VL with G34A, F36Y, S46A, H89Q, Y92N
B14: clone 2.1 Fab CB_10 (clonal burst) (Fab, V domains shown)
VH: B1 VH with A27D, R44K, G56S, A96G
VL: B1 VL with F36Y, S46A, H89Q, Y92N, S93R
B15: clone 2.1 Fab TA_23 (Fab, V domains shown)
VH: B1 VH with A27D, R44K, G56S
VL: B1 VL with G34A, F36Y, S46A, Y92N
B16: clone 2.1 Fab CB_07 (clonal burst) (Fab, V domains shown)
VH: B1 VH with A27D, R44K, G56S, A96G
VL: B1 VL with G34A, F36Y, S46A, H89Q, Y92K
B17: clone 2.1 Fab CB_05 (clonal burst) (Fab, V domains shown)
VH: B1 VH with A27D, R44K, G56S, A96G
VL: B1 VL with G34A, F36Y, S46A, H89Q, Y92N
B18: clone 2.1 Fab TA_14 (Fab, V domains shown)
VH: B1 VH with A27D, R44K, G56S
VL: B1 VL with G34A, F36Y, H89Q, Y92N
B19: clone 2.1 Fab TA_3 (Fab, V domains shown)
VH: B1 VH with A27D, R44K, G56S
VL: B1 VL with G34V, F36Y, S46A, H89Q, Y92N
B20: clone 2.1 Fab TA_4 (Fab, V domains shown)
VH: B1 VH with A27D, R44K, G56S
VL: B1 VL with G34V, F36Y, S46A, H89Q, Y92D
B21: clone 2.1 Fab TA_10 (Fab, V domains shown)
VH: B1 VH with A27D, K39R, R44K, G56S
VL: B1 VL with G34A, F36Y, S46A, H89Q, Y92N
B22: clone 2.1 Fab TA_15 (Fab, V domains shown)
VH: B1 VH with A27D, R44K, G56S
VL: B1 VL with G34A, F36Y, S46A, Y49F, H89Q, Y92N
B23: clone 2.1 Fab CB_01 (clonal burst) (Fab, V domains shown)
VH: B1 VH with A27D, R44K, G56S, I69F
VL: B1 VL with G34A, F36S, S46A, H89Q, Y92K
B24: clone 2.1 Fab CB_02 (clonal burst) (Fab, V domains shown)
VH: B1 VH with A27D, R44K, G56S, A96G
VL: B1 VL with F36Y, S46A, H89Q, Y92N
B25: clone 2.1 Fab TA_22 (Fab, V domains shown)
VH: B1 VH with A27D, R44K, G56S
VL: B1 VL with G34A, F36Y, S46A, H89Q, Y92S
B26: clone 2.1 Fab TA_19 (Fab, V domains shown)
VH: B1 VH with A27D, R44K, G56S
VL: B1 VL
B27: clone 2.1 Fab TA_28 (Fab, V domains shown)
VH: B1 VH with A27D, R44K
VL: B1 VL with G34A, F36Y, S46A, H89Q, Y92N
B28: clone 2.1 Fab TA_12 (Fab, V domains shown)
VH: B1 VH with A27D, R44K, G56S
VL: B1 VL with G34A, S46A, H89Q, Y92N
B29: 2.1^hi Fab, high-affinity variant of clone 2.1 (Fab, V domains shown)
VH: B1 VH
VL: B1 VL
B30: clone 2.1 Fab TA_24 (Fab, V domains shown)
VH: B1 VH with A27D, R44K, G56S
VL: B1 VL with G34A, F36Y, S46A, H89Q

Where a chain is given by its changes, count along the chain named.

The record followed here is paper PMC13360575.

The first assay addresses chicken IgY (chicken). Kind of assay: BLI; Octet, SAX (streptavidin) biosensors; Fabs at multiple concentrations; KD from a kinetic 1:1 model, global fits (R^2 > 0.98); as described previously (ref. 7). Background: BLI is a label-free optical method that tracks binding on a fibre tip over time.
Regarding B1, the Kd (in general, the concentration at which binding is half-saturated) was found to be 0.062 nM.

A further assay deals with chicken IgY (chicken). As to the kind of experiment: BLI; Octet, SAX (streptavidin) biosensors; recombinant Fabs against IgY; KD from a kinetic 1:1 model, global fit over multiple concentrations (partial fits averaged for 3 low-affinity Fabs).
In the case of B2, the Kd stood at 4.21 nM; the koff (usually the rate constant with which the complex falls apart) stood at 0.000383 s⁻¹; the on-rate constant (kon) (as a rule, the rate constant with which the complex forms) amounted to 90900 M⁻¹ s⁻¹.
The like results for B3 were, in that order, 3.2 nM, 0.000412 s⁻¹ and 129000 M⁻¹ s⁻¹.
Taken in the same sequence, the figures for B4 were 21.6 nM, 0.00331 s⁻¹ and 153000 M⁻¹ s⁻¹.
With B5, the Kd is 58.5 nM, the dissociation rate constant (koff) worked out at 0.00803 s⁻¹ and the on-rate (kon) stood at 137000 M⁻¹ s⁻¹.
The like results for B6 were, in that order, 0.549 nM, 0.000119 s⁻¹ and 216000 M⁻¹ s⁻¹.
Taken in the same sequence, the figures for B7 were 1.83 nM, 0.00011 s⁻¹ and 59800 M⁻¹ s⁻¹.
For the molecule B8, the Kd was 0.28 nM, the koff was 0.000203 s⁻¹ and the kon is 724000 M⁻¹ s⁻¹.
The like results for B9 were, in that order, 1.49 nM, 0.000329 s⁻¹ and 221000 M⁻¹ s⁻¹.
The like results for B10 were, in that order, 2.84 nM, 0.000359 s⁻¹ and 126000 M⁻¹ s⁻¹.
For the molecule B11, the dissociation constant (Kd) was determined as 1.21 nM, the off-rate (koff) was found to be 0.000462 s⁻¹ and the kon came to 381000 M⁻¹ s⁻¹.
The like results for B12 were, in that order, 26 nM, 0.00226 s⁻¹ and 86700 M⁻¹ s⁻¹.
Regarding B13, the Kd turned out to be 3.81 nM, the koff was 0.000858 s⁻¹ and the on-rate constant (kon) is 225000 M⁻¹ s⁻¹.
The like results for B14 were, in that order, 0.127 nM, 3.73e-05 s⁻¹ and 294000 M⁻¹ s⁻¹.
As for B15, the dissociation constant (Kd) was 13.3 nM, the koff came to 0.00133 s⁻¹ and the kon came out at 100000 M⁻¹ s⁻¹.
Taken in the same sequence, the figures for B16 were 1.34 nM, 0.000349 s⁻¹ and 261000 M⁻¹ s⁻¹.
Regarding B17, the dissociation constant (Kd) came out at 6.76 nM, the off-rate constant (koff) came out at 0.00149 s⁻¹ and the kon stood at 221000 M⁻¹ s⁻¹.
The like results for B18 were, in that order, 6.25 nM, 0.00139 s⁻¹ and 223000 M⁻¹ s⁻¹.
The like results for B19 were, in that order, 54 nM, 0.00767 s⁻¹ and 142000 M⁻¹ s⁻¹.
Taken in the same sequence, the figures for B20 were 71.1 nM, 0.00792 s⁻¹ and 111000 M⁻¹ s⁻¹.
On to B21, for which the Kd was 22.3 nM, the off-rate constant (koff) was 0.0034 s⁻¹ and the kon turned out to be 152000 M⁻¹ s⁻¹.
The like results for B22 were, in that order, 14.4 nM, 0.00168 s⁻¹ and 116000 M⁻¹ s⁻¹.
The like results for B23 were, in that order, 3.77 nM, 0.000398 s⁻¹ and 105000 M⁻¹ s⁻¹.
Taken in the same sequence, the figures for B24 were 0.507 nM, 0.000123 s⁻¹ and 244000 M⁻¹ s⁻¹.
On to B25, for which the equilibrium dissociation constant (Kd) stood at 14.9 nM, the off-rate (koff) amounted to 0.00124 s⁻¹ and the kon stood at 83500 M⁻¹ s⁻¹.
B26: the Kd is 0.261 nM, the koff came to 8.66e-05 s⁻¹ and the kon is 331000 M⁻¹ s⁻¹.
The like results for B27 were, in that order, 22 nM, 0.00309 s⁻¹ and 140000 M⁻¹ s⁻¹.
Consider B28, for which the equilibrium dissociation constant (Kd) was 22.7 nM, the koff came to 0.00408 s⁻¹ and the association rate constant (kon) came out at 180000 M⁻¹ s⁻¹.
Consider B29, for which the koff is 6.34e-05 s⁻¹ and the on-rate constant (kon) is 1.03e+06 M⁻¹ s⁻¹.
As to B30, the Kd was 7.72 nM, the koff is 0.000911 s⁻¹ and the kon came out at 118000 M⁻¹ s⁻¹.
